According to patent US20240115668A1 (KOLON TISSUEGENE, published 2024):
Values belong to the binder of their own block, whether it stands above or below them.

Molecular target: Recombinant human PTEN protein (human, UniProt P60483 1-403 (dog entry), limits assumed)
Experiment: cell-based or functional assay

Recombinant human PTEN protein, sequence (P60483 whole entry): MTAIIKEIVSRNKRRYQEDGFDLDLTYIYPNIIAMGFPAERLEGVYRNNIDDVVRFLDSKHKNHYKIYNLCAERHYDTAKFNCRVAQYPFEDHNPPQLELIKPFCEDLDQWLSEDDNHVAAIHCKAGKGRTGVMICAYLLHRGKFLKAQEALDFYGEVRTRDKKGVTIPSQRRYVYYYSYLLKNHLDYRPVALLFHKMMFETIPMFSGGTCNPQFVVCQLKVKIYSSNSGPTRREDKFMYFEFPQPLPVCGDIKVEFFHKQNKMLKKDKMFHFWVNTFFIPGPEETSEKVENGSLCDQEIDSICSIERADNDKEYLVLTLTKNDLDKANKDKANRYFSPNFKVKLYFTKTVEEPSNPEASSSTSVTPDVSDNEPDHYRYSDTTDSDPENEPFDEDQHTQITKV

PTEN activity remaining with 10 µM peptide, compared with positive control (in vitro PTEN activity assay): 54%
B1: TGN-1 peptide (peptide)
peptide: RRRRRRRRVTPDVSDNEPDHYRYSDTTDSDPE
modifications: three phosphorylated Serine residues (pS; PTEN Ser370, Ser380 and Ser385 = peptide positions 14, 24 and 29); C-terminal amide

IC50, in vitro PTEN activity assay (lipid phosphatase, C8-PIP3 liposomes, Malachite Green): 87.1 µM
PTEN activity remaining with 10 µM peptide, compared with positive control (in vitro PTEN activity assay): 86%
Binder: RRRRRRRRHYRYVDTTDVDPENEPFDEDQHTQITKV (C-terminal amide) [TGN-3 peptide]

PTEN activity remaining with 10 µM peptide, compared with positive control (in vitro PTEN activity assay): 31%
B2: TGN-2 peptide (peptide)
peptide: RRRRRRRRHYRYSDTTDSDPENEPFDEDQHTQITKV
modifications: two phosphorylated Serine residues (pS; PTEN Ser380 and Ser385 = peptide positions 13 and 18); C-terminal amide
